In publication PMC6691507 (Biochemistry, 2019):

Target: PAD2 D177A mutant, purified recombinant (human (from the printed UniProt entry …, UniProt Q9Y2J8 1-665, D177A))
Experiment: co-IP

PAD2 D177A mutant, purified recombinant (human, sequence (Q9Y2J8 whole entry D177A): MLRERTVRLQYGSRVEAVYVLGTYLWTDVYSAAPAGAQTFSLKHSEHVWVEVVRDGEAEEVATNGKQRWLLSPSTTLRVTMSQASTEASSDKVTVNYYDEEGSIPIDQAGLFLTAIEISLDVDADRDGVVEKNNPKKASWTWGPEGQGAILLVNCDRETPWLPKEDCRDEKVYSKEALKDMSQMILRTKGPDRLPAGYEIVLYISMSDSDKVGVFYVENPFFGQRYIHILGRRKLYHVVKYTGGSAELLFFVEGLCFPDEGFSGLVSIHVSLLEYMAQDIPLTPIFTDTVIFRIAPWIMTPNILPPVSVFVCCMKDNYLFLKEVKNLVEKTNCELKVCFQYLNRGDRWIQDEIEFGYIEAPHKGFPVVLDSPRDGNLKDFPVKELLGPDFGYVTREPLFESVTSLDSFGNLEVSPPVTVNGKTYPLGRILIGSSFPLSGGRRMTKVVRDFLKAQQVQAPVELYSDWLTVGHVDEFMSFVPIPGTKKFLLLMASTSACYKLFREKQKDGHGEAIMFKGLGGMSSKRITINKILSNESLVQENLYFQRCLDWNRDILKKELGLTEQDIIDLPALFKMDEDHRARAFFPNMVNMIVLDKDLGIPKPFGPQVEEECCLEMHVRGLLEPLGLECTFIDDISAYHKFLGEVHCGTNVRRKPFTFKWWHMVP

B1: Annexin A5 (ANXA5), purified recombinant (natural protein, UniProt P08758 1-320, looked up)
chain: MAQVLRGTVTDFPGFDERADAETLRKAMKGLGTDEESILTLLTSRSNAQRQEISAAFKTLFGRDLLDDLKSELTGKFEKLIVALMKPSRLYDAYELKHALKGAGTNEKVLTEIIASRTPEELRAIKQVYEEEYGSSLEDDVVGDTSGYYQRMLVVLLQANRDPDAGIDEAQVEQDAQALFQAGELKWGTDEEKFITIFGTRSVSHLRKVFDKYMTISGFQIEETIDRETSGNLEQLLLAVVKSIRSIPAYLAETLYYAMKGAGTDDHTLIRVMVSRSEIDLFNIRKEFRKNFATSLYSMIKGDTSGDYKKALLLLCGEDD
B1: binds.
